According to publication PMC9529347:

Molecular target: SARS-CoV-1 RBD-Fc (RBD N321-P513 fused to CH2 and CH3 of mouse IgG1) (SARS-CoV-1)
Test: SPR

soluble human ACE2, truncated ectodomain (S19-D615), C-terminal 6xHIS-tag, sequence (Q9BYF1 19-615): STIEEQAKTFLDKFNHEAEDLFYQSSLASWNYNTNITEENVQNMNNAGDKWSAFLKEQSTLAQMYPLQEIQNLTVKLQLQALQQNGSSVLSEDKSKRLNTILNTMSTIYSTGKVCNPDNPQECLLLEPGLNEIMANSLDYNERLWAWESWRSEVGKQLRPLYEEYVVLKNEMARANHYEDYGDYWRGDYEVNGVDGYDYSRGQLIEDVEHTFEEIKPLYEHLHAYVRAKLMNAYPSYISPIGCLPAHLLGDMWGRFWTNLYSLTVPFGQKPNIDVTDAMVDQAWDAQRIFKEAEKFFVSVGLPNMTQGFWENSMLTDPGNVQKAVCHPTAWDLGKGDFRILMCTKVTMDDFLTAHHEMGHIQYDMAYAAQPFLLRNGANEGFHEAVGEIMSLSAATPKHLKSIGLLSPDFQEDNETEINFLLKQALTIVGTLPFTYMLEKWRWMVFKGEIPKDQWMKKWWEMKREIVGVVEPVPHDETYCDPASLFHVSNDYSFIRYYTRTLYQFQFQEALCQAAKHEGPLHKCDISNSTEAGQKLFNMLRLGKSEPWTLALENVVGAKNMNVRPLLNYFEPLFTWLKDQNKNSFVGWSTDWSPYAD

Substance: soluble human ACE2, truncated ectodomain (S19-D615), C-terminal 6xHIS-tag (from UniProt Q9BYF1 19-615) (receptor)
- Kd: 385 nM
